Where two headings read alike, the source gives them in different places. Ends that are not written are not given here.
B7: M11 (residues 1–137), purified alone (domain or fragment)
chain: MSHKKSGTYWATLITAFLKTVSKVEELDCVDSAVLVDVSKIITLTQEFRRHYDSVYRADYGPALKNWKRDLSKLFTSLFVDVINSGRIVGFFDVGRYVCEEVLCPGSWTEDHELLNDCMTHFFIENNLMNHFPLEDI
notes: source: E. coli BL21(DE3), purified (Ni-NTA, Hitrap Q)

Experiments:
[1] = target: T1, M11, viral BCL-2 of murine γ-herpesvirus 68 (residues 1–137) (Murid herpesvirus 4, UniProt P89884); type: binding
T1 construct: Each of the DNA fragments coding for M11 (residues 1–137); His6 tag; This is inferred: pPROEX HTa encodes an N-terminal His tag with a TEV site, and purification was on Ni-NTA; (N); made in house; host or cells: E. coli BL21(DE3)
T1 sequence (P89884 whole entry, looked up): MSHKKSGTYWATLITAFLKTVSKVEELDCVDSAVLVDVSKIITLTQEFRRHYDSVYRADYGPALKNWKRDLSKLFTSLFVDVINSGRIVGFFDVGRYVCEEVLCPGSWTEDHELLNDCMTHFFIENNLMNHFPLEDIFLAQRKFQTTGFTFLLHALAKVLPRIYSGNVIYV
Description: (§1) “HT”, “CCD” and “ECD” denote hydrophobic tail, coiled-coil domain and evolutionarily conserved domain, respectively. […] The surface coloring scheme is as follows: olive for Val, Leu, Ile, Phe, Trp, Met, and Ala; yellow for Cys, Gly, Tyr, and Pro; gray for other amino acids. […] Only the BH3-binding groove region of M11 is shown for clarity. […] The arrows indicate the movements of the Cα atoms of Asp59 and Tyr60 in M11. (C) ITC analysis.
(§2) Figure 5 Analyses of the Interactions between M11 or BCL-2 Proteins and BAX/BAK (A) Cell-based binding assay. 293T cells were transfected with HA-tagged BAK or Flag-tagged BAX together with the indicated GST-tagged prosurvival BCL-2 proteins. Whole cell lysates were used for immunoprecipitation with anti-GST followed by immunoblotting with anti-HA or anti-Flag. […] (B) ITC analyses of the interactions of M11 with the BH3 peptides of BAX or BAK. The ITC analysis was carried out by titrating 0.1 mM of the indicated peptides into 5 μM of M11. The ITC run for the titration of the 26-mer BAK peptide is shown. […] NIH3T3 cells were transfected with HA-tagged M11 and whole cell lysates were used for immunoprecipitation with control rabbit serum or anti-BAK followed by immunoblotting with anti-HA.
(§3) A plasmid containing the DNA segment coding for human BCL-2 (residues 1–50 and 92–207) was also constructed. The resulting protein lacks the internal long loop (residues 51–91) and contains a replacement of residues 35–50 with residues 33–48 of BCL-XL, which was necessary for the solubility of the protein as reported earlier. Each construct was introduced into the E. coli BL21(DE3) strain. The proteins were expressed at 21 °C overnight and purified using a Ni-NTA column and a Hitrap Q anion exchange column.
(§4) All measurements were carried out at 25 °C on a MicroCalorimetry System (MicroCal). Protein samples were dialyzed against the solution containing 20 mM Tris-HCl (pH 7.4) and 100 mM NaCl. The samples were degassed for 20 min and centrifuged to remove any residuals prior to the measurements. Dilution enthalpies were measured in separate experiments (titrant into buffer) and subtracted from the enthalpies of the binding between the protein and the titrant. Data were analyzed using the Origin software (OriginLab Corp.).

[2] = system: BCL-XL ∆C24; conditions: Table S1; relative values, not absolute KD; peptides of Chen et al. are the same as or 1 to 2 residues shorter than those of this paper; read-out: binding affinity for BCL-XL ∆C24 (relative value, competitive binding assay); cited from earlier work
[3] = system: BCL-w ∆C29; conditions: Table S1; relative values, not absolute KD; peptides of Chen et al. are the same as or 1 to 2 residues shorter than those of this paper; read-out: binding affinity for BCL-w ∆C29 (relative value, competitive binding assay); cited from earlier work
[4] = system: A1 ∆C20; set-up: method as in earlier work; conditions: Table S1; relative values, not absolute KD; peptides of Chen et al. are the same as or 1 to 2 residues shorter than those of this paper; read-out: binding affinity for A1 ∆C20 (relative value, competitive binding assay); cited from earlier work
[5] = system: MCL ∆N151 ∆C23; set-up: method as in earlier work; conditions: Table S1; relative values, not absolute KD; peptides of Chen et al. are the same as or 1 to 2 residues shorter than those of this paper; read-out: binding affinity for MCL ∆N151 ∆C23 (relative value, competitive binding assay); cited from earlier work
[6] = target: T2, M11, viral BCL-2 of murine γ-herpesvirus 68 (residues 1–137) (Murid herpesvirus 4, UniProt P89884); type: binding; conditions: ITC, 25 °C, 20 mM Tris-HCl (pH 7.4), 100 mM NaCl; Table S2
T2 construct: Each of the DNA fragments coding for M11 (residues 1–137); His6 tag; This is inferred: pPROEX HTa encodes an N-terminal His tag with a TEV site, and purification was on Ni-NTA; (N); made in house; host or cells: E. coli BL21(DE3)
Description: as §1, §2, §3, §4

[7] = system: BCL-2 ∆C22; set-up: method as in earlier work; conditions: Table S1; relative values, not absolute KD; peptides of Chen et al. are the same as or 1 to 2 residues shorter than those of this paper; read-out: binding affinity for BCL-2 ∆C22 (relative value, competitive binding assay); cited from earlier work
[8] = target: B7; assay: ITC; conditions: both partners purified
[9] = target: human BCL-2 (residues 1–50 and 92–207); assay: Isothermal titration calorimetry (ITC) of BCL-2 with Beclin1 fragment; type: binding
Protocol: Figure 3 M11 Interacts Much More Tightly with Beclin1 than BCL-2 and BCL-XL (A) ITC analysis. The measurement was carried out by titrating 0.1 mM of M11 or BCL-2 into 5 μM of the indicated Beclin1 fragment. The K D values were deduced from curve fittings of the integrated heat per mol of added ligand. (B) M11–Beclin1 interface is tighter than that of BCL-XL–Beclin1. The structures of M11–Beclin1 fragment (left) and BCL-XL–Beclin1 peptide (right) are compared side by side. In both the structures, the five consensus BH3 residues of the bound α-helices and the side chains of M11 or BCL-XL interacting with those residues are shown as sticks and labeled. Noted are the tighter interactions of the N-terminal region of Beclin1 with the α3 helix of M11 than the corresponding region in the BCL-XL–Beclin1 helix (indicated by dotted circles).
Each of the DNA fragments coding for M11 (residues 1–137), mouse BCL-XL (residues 1–44 and 85–196) or mouse Beclin1 (residues 101–267) was cloned into pPROEX HTa. […]
All measurements were carried out at 25 °C on a MicroCalorimetry System (MicroCal). […] Dilution enthalpies were measured in separate experiments (titrant into buffer) and subtracted from the enthalpies of the binding between the protein and the titrant. Data were analyzed using the Origin software (OriginLab Corp.).

[10] = target: T3, mouse BCL-XL (residues 1–44 and 85–196) (mouse, UniProt Q64373-1 1-196, lacking the internal long loop (residues 45–84)); assay: native gel or EMSA; conditions: both partners purified
T3 construct: also called BCL-XL lacking the internal long loop and the C-terminal tail region

[11] = target: T4, Beclin1(101–267) (mouse, UniProt O88597 101-267); assay: ITC; conditions: both partners purified
T4 construct: also called Beclin1 fragment containing residues 101–267; large Beclin1 fragment; source: E. coli BL21(DE3), purified (Ni-NTA, Hitrap Q)

[12] = 25 °C, 20 mM Tris-HCl (pH 7.4), 100 mM NaCl
[13] = ITC, 25 °C, 20 mM Tris-HCl (pH 7.4), 100 mM NaCl, Table S2

T3 sequence (Q64373 other isoform, or with tags, fused parts or gaps with the stated changes): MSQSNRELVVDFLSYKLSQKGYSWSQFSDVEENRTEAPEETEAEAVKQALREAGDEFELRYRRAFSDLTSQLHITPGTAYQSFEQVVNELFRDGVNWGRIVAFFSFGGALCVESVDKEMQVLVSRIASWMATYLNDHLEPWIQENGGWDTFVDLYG

Molecule: BAK (16-mer; residues 69-84): synthetic 16-mer peptide, residues 69–84 of BAK, spanning the BH3 domain (LGQVGRQLALIGDDIN)
- interaction with M11 in ITC, in words (KD could not be deduced) [1, 12]: flat titration curve

Molecule: BIK: synthetic 25-mer BH3 peptide, residues 45–69 of BIK (VEGRNQVALRLACIGDEMDLCLRSP)
- interaction with M11 in ITC, in words (KD could not be deduced) [1, 12]: did not interact or poorly interacted
- IC50 [2]: 43 nM
- IC50 [3]: 12 nM
- IC50 [4]: 58 nM

Molecule: Beclin1 fragment composed of residues 101–116: a shorter Beclin1 fragment composed of residues 101–116 (ASDGGTMENLSRRLKV)
- interaction with M11 in ITC, in words (KD could not be deduced) [1, 12]: no sign of interaction

Molecule: EEEWAREIGAQLRRMADDLNAQYERR [PUMA]
- IC50 [5]: 5 nM
- IC50 [4]: 5.7 nM

Molecule: HRAEVQIARKLQCIADQFHRLHTQ [BMF]
- -T∆S (M11 + BH3) [6]: -2.56 kcal/mol
- ∆G (M11 + BH3) [6]: -8.90 kcal/mol
- ∆H (M11 + BH3) [6]: -6.34 ± 0.07 kcal/mol
- IC50 [7]: 3 nM
- IC50 [2]: 9.7 nM
- IC50 [3]: 9.8 nM
- IC50 [5]: 1100 nM
- IC50 [4]: 1800 nM

Molecule: RWAAAQVTALRLQALGDELHRRAMRR [Hrk]
- IC50 [7]: 320 nM
- IC50 [2]: 3.7 nM
- IC50 [3]: 49 nM
- IC50 [4]: 46 nM

B1: BAK BH3 peptide, 26-mer (residues 65–90 of BAK) (peptide, UniProt O08734 65-90, looked up)
peptide: PNSILGQVGRQLALIGDDINRRYDTE
notes: also called BAK peptide; 26-mer BAK peptide; source: synthetic peptide, bought: Peptron (Korea)
- Kd [8]: 76 nM

B2: Noxa BH3 peptide, 26-mer (residues 16–41 of Noxa) (peptide, UniProt Q9JM54 16-41, looked up)
peptide: RAELPPEFAAQLRKIGDKVYCTWSAP
notes: also called Noxa peptide; source: synthetic peptide, bought: Peptron (Korea)
- binding result [8]: binds

B3: BID BH3 peptide, 25-mer (residues 80–104 of BID) (peptide, UniProt P70444 80-104, looked up)
peptide: EEIIHNIARHLAQIGDEMDHNIQPT
notes: also called BID peptide; source: synthetic peptide, bought: Peptron (Korea)
- binding result [8]: binds

B4: Beclin1(101–267): mouse Beclin1 fragment containing residues 101–267, expressed as a soluble form in E. coli (protein)
chain: ASDGGTMENLSRRLKVTGDLFDIMSGQTDVDHPLCEECTDTLLDQLDTQLNVTENECQNYKRCLEILEQMNEDDSEQLQRELKELALEEERLIQELEDVEKNRKVVAENLEKVQAEAERLDQEEAQYQREYSEFKRQQLELDDELKSVENQVRYAQIQLDKLKKTNV
- Kd ([1]; ITC, 25 °C, 20 mM Tris-HCl (pH 7.4), 100 mM NaCl, 0.1 mM M11 titrated into 5 μM Beclin1 fragment, KD from curve fitting, listed as Residues 101 - 267, read-out: KD (M11 – Beclin1 fragment)): 40.2 ± 9.05 nM
- Kd ([1]; ITC, 25 °C, 20 mM Tris-HCl (pH 7.4), 100 mM NaCl, 0.1 mM M11 titrated into 5 μM Beclin1 fragment, KD from curve fitting, read-out: KD (M11 – Beclin1 fragment)): 40 nM
- -T∆S (M11 + Beclin1) [1, 13]: 4.23 kcal/mol
- ∆G (M11 + Beclin1) [1, 13]: -10.10 kcal/mol
- ∆H (M11 + Beclin1) [1, 13]: -14.33 ± 0.23 kcal/mol
- Kd ([1]; ITC, read-out: dissociation constant (M11 – BH3-like domain of Beclin1)): 40 nM
- Kd ([9]; 25 °C, 20 mM Tris-HCl (pH 7.4), 100 mM NaCl, Table S2, read-out: KD (BCL-2 + Beclin1)): 1680 ± 452 nM
- Kd ([9]; read-out: binding affinity between cellular BCL-2 and Beclin1): 1700 nM

B5: BIM BH3 peptide, 26-mer (residues 139–164 of BIM) (peptide, UniProt O54918-1 139-164, looked up)
peptide: DLRPEIRIAQELRRIGDEFNETYTRR
notes: also called BIM peptide; source: synthetic peptide, bought: Peptron (Korea)
- binding result [8]: binds
- binding result [10]: binds

B6: PUMA BH3 peptide, 26-mer (residues 130–155 of PUMA) (peptide, UniProt Q99ML1 130-155, looked up)
peptide: EEEWAREIGAQLRRMADDLNAQYERR
notes: also called PUMA peptide; source: synthetic peptide, bought: Peptron (Korea)
- binding result [8]: binds

Molecule: B7
- Kd [11]: 40 nM

B8: human BCL-2 (residues 1–50 and 92–207, residues 35–50 replaced with residues 33–48 of BCL-XL) (domain or fragment, UniProt P10415-1 1-34, looked up)
chain: MAHAGRTGYDNREIVMKYIHYKLSQRGYEWDAGDNRTEAPEGTESEMETPVVHLTLRQAGDDFSRRYRRDFAEMSSQLHLTPFTARGRFATVVEELFRDGVNWGRIVAFFEFGGVMCVESVNREMSPLVDNIALWMTEYLNRHLHTWIQDNGGWDAFVELYGPSMR
notes: also called cellular BCL-2; source: E. coli BL21(DE3), purified (Ni-NTA, Hitrap Q)
- Kd [11]: 1700 nM

B9: BAX BH3 peptide, 26-mer (residues 52–77 of BAX) (peptide, UniProt Q07813-1 52-77, looked up)
peptide: QDASTKKLSECLRRIGDELDSNMELQ
notes: also called BAX peptide; source: synthetic peptide, bought: Peptron (Korea)
- Kd [8]: 690 nM

B10: BAD BH3 peptide, 27-mer (residues 137–163 of BAD) (peptide, UniProt Q61337 137-163, looked up)
peptide: APPNLWAAQRYGRELRRMSDEFEGSFK
notes: also called BAD peptide; source: synthetic peptide, bought: Peptron (Korea)
- binding result [10]: binds

— publication PMC2222952, “Structural and Biochemical Bases for the Inhibition of Autophagy and Apoptosis by Viral BCL-2 of Murine γ-Herpesvirus 68” (PLoS Pathogens, 2008)
